From patent US20210002624

Target: Factor X, P00742
Sequence (P00742 whole entry, looked up): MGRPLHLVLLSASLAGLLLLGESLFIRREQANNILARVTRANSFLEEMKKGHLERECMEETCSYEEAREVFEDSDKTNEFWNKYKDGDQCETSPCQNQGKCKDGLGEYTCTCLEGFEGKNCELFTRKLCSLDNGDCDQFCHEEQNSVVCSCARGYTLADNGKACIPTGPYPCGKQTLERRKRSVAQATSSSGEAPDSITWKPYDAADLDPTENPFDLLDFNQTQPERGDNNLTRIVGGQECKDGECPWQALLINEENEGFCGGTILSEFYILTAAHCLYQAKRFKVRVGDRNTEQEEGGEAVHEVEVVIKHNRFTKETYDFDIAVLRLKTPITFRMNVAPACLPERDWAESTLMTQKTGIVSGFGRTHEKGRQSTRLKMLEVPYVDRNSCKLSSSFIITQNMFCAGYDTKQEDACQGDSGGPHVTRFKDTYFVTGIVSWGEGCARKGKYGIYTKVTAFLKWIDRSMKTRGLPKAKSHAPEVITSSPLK

B1: Desialylated wild-type Factor VII (dWT VIIa) (protein)
chain 1: ANAFLEELRPGSLERECKEEQCSFEEAREIFKDAERTKLFWISYSDGDQCASSPCQNGGSCKDQLQSYICFCLPAFEGRNCETHKDDQLICVNENGGCEQYCSDHTGTKRSCRCHEGYSLLADGVSCTPTVEYPCGKIPILEKRNASKPQGR
chain 2: IVGGKVCPKGECPWQVLLLVNGAQLCGGTLINTIWVVSAAHCFDKIKNWRNLIAVLGEHDLSEHDGDEQSRRVAQVIIPSTYVPGTTNHDIALLRLHQPVVLTDHVVPLCLPERTFSERTLAFVRFSLVSGWGQLLDRGATALELMVLNVPRLMTQDCLQQSRKVGDSPNITEYMFCAGYSDGSKDSCKGDSGGPHATHYRGTWYLTGIVSWGQGCATVGHFGVYTRVSQYIEWLQKLMRSEPRPGVLLRAPFP
activation of Factor X (Michaelis Menten kinetics; Factor X titrated in the presence of sTF-Factor VII complexes, 0.5 nM Factor VII, 125 nM sTF), relative to wild-type Factor VII (F7): approximately 2-fold
